The source of these data is publication PMC8686788 (Science (New York, N.Y.), 2021).

Substitutions are numbered along the chain they refer to. Names and notes keep the numbering of the source. Read-outs that look alike come from different tables or passages of the source.

Common to all, as to assay: fluorescence polarisation
The target in test [1] is T1, KaiC (Synechococcus elongatus, UniProt Q79PF4 1-519).
T1 sequence (looked up): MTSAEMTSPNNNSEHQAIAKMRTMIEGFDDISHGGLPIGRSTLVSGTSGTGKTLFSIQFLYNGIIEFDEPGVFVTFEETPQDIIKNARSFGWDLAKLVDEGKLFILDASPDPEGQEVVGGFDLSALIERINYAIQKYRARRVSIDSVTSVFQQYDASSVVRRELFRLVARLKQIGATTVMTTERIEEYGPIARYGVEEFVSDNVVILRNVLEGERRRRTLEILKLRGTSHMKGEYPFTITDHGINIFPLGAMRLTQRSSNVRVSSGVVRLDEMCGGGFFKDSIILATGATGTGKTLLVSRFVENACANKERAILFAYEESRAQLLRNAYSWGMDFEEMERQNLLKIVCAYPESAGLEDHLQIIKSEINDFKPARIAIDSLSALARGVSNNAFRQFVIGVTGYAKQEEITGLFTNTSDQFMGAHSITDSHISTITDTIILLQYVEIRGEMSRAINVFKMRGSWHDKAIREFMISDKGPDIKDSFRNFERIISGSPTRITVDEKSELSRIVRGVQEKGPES

Test [2] addresses T2, KaiC-EA (Synechococcus elongatus, UniProt Q79PF4 1-519, S431E (KaiC-EA) | T432A (KaiC-EA)).
T2 sequence (looked up): T1 sequence (looked up) with S431E, T432A

In test [3] the target is T1, KaiC. The source holds these as a separate data set.
Test [4] has as its target T3, circadian input kinase A, CikA (Synechococcus elongatus, UniProt Q9KHI5 1-754, fluorescent probe attached by sortase A-mediated ligation).
T3 sequence (looked up): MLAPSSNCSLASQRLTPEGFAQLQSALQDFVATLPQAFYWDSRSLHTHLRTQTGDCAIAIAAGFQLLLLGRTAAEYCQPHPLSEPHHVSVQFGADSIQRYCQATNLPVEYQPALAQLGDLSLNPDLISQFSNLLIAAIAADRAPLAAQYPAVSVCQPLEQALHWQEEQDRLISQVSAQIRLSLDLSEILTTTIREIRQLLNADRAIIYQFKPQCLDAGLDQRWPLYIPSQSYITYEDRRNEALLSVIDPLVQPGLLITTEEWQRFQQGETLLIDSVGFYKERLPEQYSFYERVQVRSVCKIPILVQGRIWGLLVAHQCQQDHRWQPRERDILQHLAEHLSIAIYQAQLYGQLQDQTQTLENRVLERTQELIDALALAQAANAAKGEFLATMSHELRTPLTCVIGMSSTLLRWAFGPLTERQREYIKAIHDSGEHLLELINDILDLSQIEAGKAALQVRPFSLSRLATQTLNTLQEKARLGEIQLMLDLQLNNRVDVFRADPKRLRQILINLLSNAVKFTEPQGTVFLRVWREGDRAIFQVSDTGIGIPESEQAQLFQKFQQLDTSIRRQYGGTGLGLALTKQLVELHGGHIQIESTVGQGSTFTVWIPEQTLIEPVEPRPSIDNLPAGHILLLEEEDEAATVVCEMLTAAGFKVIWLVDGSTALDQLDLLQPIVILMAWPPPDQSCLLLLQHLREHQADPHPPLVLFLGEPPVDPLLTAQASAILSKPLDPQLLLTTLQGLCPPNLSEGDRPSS

B1: SasA-H28A-Q94A (enzyme, Synechococcus elongatus, UniProt Q06904 1-387, looked up)
chain: MGESLSPQALAQPLLLQLFVDTRPLSQAIVQRVKNILAAVEATVPISLQVINVADQPQLVEYYRLVVTPALVKIGPGSRQVLSGIDLTDQLANALPQWLVQQEAFFADREPPEVNIPFTELGQPETPALQQADAFFQLQQQYADLSERTKFLEQVIALVAHDLRNPLTAALLAVDTIQIRSQSFSVATAKEMQGLCSLFDQARSQLREIERMIAEILEATRHSGESLRINPREVVFEPLLQQVLEQLHERWRSKQQQLITDVPGDLPTLYADPDRLRQVLVNLLDNAIKYTPPGGTITIAALHRTSQKVQISISDTGSGIPRDQLSVIFKNLVRLSRDSSQEGYGIGLSVCQRIVQAHFGRIWVASELGQGSTFHFTMPVYRYTMPC
Take B1: in test [1], the binding result is reported as “binds”.

B2: KaiB (natural protein, Synechococcus elongatus, UniProt Q79PF5 1-102, looked up)
chain: MSPRKTYILKLYVAGNTPNSVRALKTLKNILEVEFQGVYALKVIDVLKNPQLAEEDKILATPTLAKVLPLPVRRIIGDLSDREKVLIGLDLLYGELQDSDDF
modifications: fluorescent probe attached by sortase A-mediated ligation
For the molecule B2, the binding result in test [2] and in test [3] was “binds” each time.

B3: KaiB-KaiC complex (complex, Synechococcus elongatus)
chain 1: B2 chain
chain 2: T1 sequence (looked up)
Consider B3, for which the binding result in test [4] is recorded as “binds”.

B4: KaiA (natural protein, Synechococcus elongatus, UniProt Q79PF6 1-284, looked up)
chain: MLSQIAICIWVESTAILQDCQRALSADRYQLQVCESGEMLLEYAQTHRDQIDCLILVAANPSFRAVVQQLCFEGVVVPAIVVGDRDSEDPDEPAKEQLYHSAELHLGIHQLEQLPYQVDAALAEFLRLAPVETMADHIMLMGANHDPELSSQQRDLAQRLQERLGYLGVYYKRDPDRFLRNLPAYESQKLHQAMQTSYREIVLSYFSPNSNLNQSIDNFVNMAFFADVPVTKVVEIHMELMDEFAKKLRVEGRSEDILLDYRLTLIDVIAHLCEMYRRSIPRET
modifications: fluorescent probe attached by sortase A-mediated ligation
Turning to B4, the binding result in test [3] is on record as “binds”.
